Data reported in patent US20040123349A1 (published 2004).

T1: MBP-SINAT5
T1 sequence: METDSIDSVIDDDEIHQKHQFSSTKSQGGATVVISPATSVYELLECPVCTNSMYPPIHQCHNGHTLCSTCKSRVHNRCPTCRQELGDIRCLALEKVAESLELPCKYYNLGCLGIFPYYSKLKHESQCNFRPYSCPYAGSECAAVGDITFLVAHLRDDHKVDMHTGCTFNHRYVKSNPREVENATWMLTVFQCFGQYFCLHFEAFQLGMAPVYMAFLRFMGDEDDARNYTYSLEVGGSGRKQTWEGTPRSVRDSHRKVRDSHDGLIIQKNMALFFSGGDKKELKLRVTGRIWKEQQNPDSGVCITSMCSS

T2: Myc-NAC1, Q84TE6
T2 chain: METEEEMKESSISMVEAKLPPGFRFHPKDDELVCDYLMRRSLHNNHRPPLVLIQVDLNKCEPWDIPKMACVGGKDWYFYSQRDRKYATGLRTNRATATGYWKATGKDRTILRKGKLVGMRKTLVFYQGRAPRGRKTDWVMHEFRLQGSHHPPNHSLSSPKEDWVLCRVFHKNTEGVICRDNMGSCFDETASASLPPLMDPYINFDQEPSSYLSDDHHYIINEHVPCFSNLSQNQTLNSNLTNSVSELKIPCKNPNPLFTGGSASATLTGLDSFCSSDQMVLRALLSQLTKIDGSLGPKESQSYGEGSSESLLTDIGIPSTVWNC

T3: Myc-NAC1 (Arabidopsis, UniProt Q84TE6 1-324)
T3 construct: Product of the 35S-6xMyc-NAC1 transgene in Arabidopsis thaliana; immunoprecipitated with anti-Myc antibody; also called 6xMyc-NAC1; Myc-tagged NAC1; not shown: 6xMyc tag
T3 sequence (looked up): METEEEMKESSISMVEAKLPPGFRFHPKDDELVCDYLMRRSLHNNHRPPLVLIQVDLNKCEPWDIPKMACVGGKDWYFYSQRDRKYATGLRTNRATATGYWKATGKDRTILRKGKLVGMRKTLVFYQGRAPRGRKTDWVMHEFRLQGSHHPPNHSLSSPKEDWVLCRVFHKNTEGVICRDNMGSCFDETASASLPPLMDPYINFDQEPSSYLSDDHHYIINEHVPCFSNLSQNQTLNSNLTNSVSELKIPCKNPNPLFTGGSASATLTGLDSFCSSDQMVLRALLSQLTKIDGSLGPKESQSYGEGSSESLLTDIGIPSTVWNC

B1: SINAT5 (wildtype) (enzyme)
chain: METDSIDSVIDDDEIHQKHQFSSTKSQGGATVVISPATSVYELLECPVCTNSMYPPIHQCHNGHTLCSTCKSRVHNRCPTCRQELGDIRCLALEKVAESLELPCKYYNLGCLGIFPYYSKLKHESQCNFRPYSCPYAGSECAAVGDITFLVAHLRDDHKVDMHTGCTFNHRYVKSNPREVENATWMLTVFQCFGQYFCLHFEAFQLGMAPVYMAFLRFMGDEDDARNYTYSLEVGGSGRKQTWEGTPRSVRDSHRKVRDSHDGLIIQKNMALFFSGGDKKELKLRVTGRIWKEQQNPDSGVCITSMCSS
notes: GenBank AF480944 is printed for the gene; also called WT SINAT5; SINA of Arabidopsis thaliana 5

Key:
MBP-SINAT5 = tested on: T1, MBP-SINAT5
Myc-NAC1, Q84TE6 = target: T2, Myc-NAC1, Q84TE6
Myc-NAC1 = target: T3, Myc-NAC1; experiment: immunoprecipitation with anti-Myc from roots of double transgenic plants, Western blot with anti-SINAT5
Procedure: Western and Northern blot analyses. Antibody to SINAT5 was raised in rabbits using as an antigen the synthetic […] peptide […] (SEQ ID NO:5) corresponding to amino acid residues 3 to 18 of SINAT5 polypeptide (SEQ ID NO:1). Antibodies to c-Myc (SC40 and SC40-AC) and actin (SC1616) from Santa Cruz Biotechnology were used for immunoprecipitation and/or Western blotting. Each lane contained 10 or 20 μg protein. RNA extraction was performed by RNeasyR Plant Mini kit (Qiagene). Northern blot analysis was described previously²⁰, using as probes a NAC1 cDNA fragment encoding the NAC1 C-terminal region (amino acid 200 to 324) and a SINAT5-specific EcoRI-NdeI fragment. The 18S rRNA was used as a loading control. Each lane contained 10 μg RNA.
SINAT5 affect on expression of NAC1 in roots. Referring now to FIG. 4, there is shown the relationship between SINAT5 and NAC1 expression levels in transgenic plants. […] Root cultures from a myc-NAC1 transgenic line were treated with 50 μM of proteasome inhibitor MG 132 (+) or DMSO (−) for 3 hr. Protein extracts were processed for Western blot analysis. […] Myc-tagged proteins from roots of double transgenic plants were immunoprecipitated with antibodies specific for Myc and processed for Western blot analysis with antibodies specific for SINAT5. […] Total RNAs from the same transgenic lines were analyzed by Northern blot. […]

| Molecule | self-ubiquitylation activity (E3 activity) of WT SINAT5, in vitro ubiquitylation assay (MBP-SINAT5) | in vitro ubiquitylation of myc-NAC1 immunopurified from transgenic plants (Western blot) (Myc-NAC1, Q84TE6) | binding result (Myc-NAC1) |
| --- | --- | --- | --- |
| MBP-SINAT5 (C49S) mutant | the C49S mutant protein was able to inhibit the self-ubiquitylation activity of the WT SINAT5 when present at a 5-10 fold excess |  |  |
| B1 |  | myc-NAC1 can be ubiquitylated by SINAT5 and this reaction is clearly dependent on E1, E2, and SINAT5 as an E3 ligase | binds |
